Publication PMC10057511

Target: AP2α/σ2 hemicomplex, both subunits fused to the Venus C-terminal fragment and V5 (UniProt O94973)
Assay: split reporter (BiFC, NanoBiT); HEK293 cells co-transfected with AP2α-Venus-C-V5, AP2σ2-Venus-C-V5 and Nef-HA-Venus-N (400 ng each); fixed the next day in 2% PFA; Venus fluorescence (FITC channel) read by flow cytometry as MFI

Sequence of UniProt O94973 (O94973 whole entry, chain 1 of 2, the tested form may be a part): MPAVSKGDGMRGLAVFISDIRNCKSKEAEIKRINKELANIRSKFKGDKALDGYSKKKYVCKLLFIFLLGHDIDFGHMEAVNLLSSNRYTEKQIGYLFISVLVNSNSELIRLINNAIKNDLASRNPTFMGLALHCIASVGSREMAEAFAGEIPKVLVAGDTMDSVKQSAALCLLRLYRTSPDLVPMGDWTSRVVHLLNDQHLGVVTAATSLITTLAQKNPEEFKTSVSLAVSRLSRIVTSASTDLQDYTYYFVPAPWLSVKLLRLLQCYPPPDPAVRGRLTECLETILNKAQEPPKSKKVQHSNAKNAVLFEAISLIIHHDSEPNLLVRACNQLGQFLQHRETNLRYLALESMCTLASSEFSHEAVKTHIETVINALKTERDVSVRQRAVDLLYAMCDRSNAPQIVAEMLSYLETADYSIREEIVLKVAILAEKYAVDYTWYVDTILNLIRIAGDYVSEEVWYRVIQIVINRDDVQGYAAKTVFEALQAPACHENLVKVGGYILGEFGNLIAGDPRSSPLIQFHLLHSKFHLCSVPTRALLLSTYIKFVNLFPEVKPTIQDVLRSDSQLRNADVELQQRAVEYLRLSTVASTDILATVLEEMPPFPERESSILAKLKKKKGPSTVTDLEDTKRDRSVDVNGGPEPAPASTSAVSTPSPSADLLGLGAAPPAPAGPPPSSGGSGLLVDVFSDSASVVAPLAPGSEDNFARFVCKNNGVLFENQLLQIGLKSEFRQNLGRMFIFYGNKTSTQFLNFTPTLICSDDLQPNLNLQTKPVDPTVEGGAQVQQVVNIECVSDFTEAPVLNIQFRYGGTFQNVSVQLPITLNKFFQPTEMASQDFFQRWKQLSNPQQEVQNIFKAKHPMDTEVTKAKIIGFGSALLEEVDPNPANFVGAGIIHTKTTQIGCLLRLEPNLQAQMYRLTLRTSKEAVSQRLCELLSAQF
Sequence of UniProt O94973 (P53680 whole entry, chain 2 of 2, further chain, the tested form may be a part): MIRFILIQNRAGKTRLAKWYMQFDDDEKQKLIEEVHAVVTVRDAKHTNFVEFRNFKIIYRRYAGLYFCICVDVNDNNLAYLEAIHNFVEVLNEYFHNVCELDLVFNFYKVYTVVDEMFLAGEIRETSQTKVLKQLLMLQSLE

Nef protein from the LAI isolate lacking the leucine-based sorting motif (LL/AA) fused to HA and the N-terminal fragment of Venus (from UniProt P03406 1-206) (natural protein)
decrease of BiFC fluorescence against Nef^LAI: 50%
